Data: a protein production outcome set (Wang et al. 2014)

Experiment: label from the status in PepcDB records

| Sequence | protein production |
| --- | --- |
| MTKKILTTPIKDEDLADIKAGDIIYLNGHIVTCRDVAHRRLIEGGRELPVNVAGGAILHAGPIVRPIKGTEDKFEMVSVGPTTSMRMEKFEKEFIAKTGVKLIVGKGGMGKGTEEGCMEHKALHCVFPAGCAVVAAVCVEEIEDAQWRDLGMPETLWVCRVKEFGPLIVSIDTHGNNLFEQNKVIFNQRKEIVADEICKHVSFIK | failed |
| MGDSHDVCRQLLPRAIFGINGKVENGVRQHPVTGSIIFALGNKIGIADYKKNTQEFVAGHTNTISCLDLSKSGKYMASGQINHMGFRGYVIIWNYDQRKEIARHDLHKVSVQAICFTAQDRCVVSIGGVDDGSVIVFDMEAFSPICQTPASRAISGNALTVRPLHNNPYFFVTAGDRHLRLWSILREEKKLYVQDVLMASKTRVFYCARINKTDEFAYLGTGTGDIVKIVLNCCDRDHVSKQGSTSCILGAFGTHNPRKPTGRDCNRYVNGVRALYVLEGGRLLIGAGNGDIELVEERTDVPLINFRDYPGPTWPYLRTLKKTHVSGRISSFVRSKTDMFYICTDTNEIYGLNIKTWVLKLLRTCHTKSVYCITFPKNYSGVFATSGKECIRIWSSGRKQELLRIMVYNFNCACVRFTHDGTSIVSVWNDGIIRAFTPITGRLIYAIPNAHNKGCSALAVASSGRLIVTGGIEGQVRVWKIDPYRQDLVGVLKDHSGPITSLDINYLDTEVISACTDGSCVIWDIKRMTRKQVVTANTQFMSASYFPTGVQVITCGSDGRIIYWMVYNGALIRELTASKKSSVNCLAINETGDYFITVGSDLQVKLWDYNSGAVVGIGSEHASSVISCAYSPCMTMFVTGSTDGSLIIWDVPRDFWGRPNPPDVTKYSLPKTSSKTRMSDVPSRVNSGTNLKTTKGENIDGLLKATPKDDLCCVECPPCAKKDTKGVDPYAECGIVPDVRKC | failed |
| SANSGCKDVTGPDEESFLYFAYGSNLLTERIHLRNPSAAFFCVARLQDFKLDFGNSQGKTSQTWHGGIATIFQSPGDEVWGVVWKMNKSNLNSLDEQEGVKSGMYVVIEVKVATQEGKEITCRSYLMTNYESAPPSPQYKKIICMGAKENGLPLEYQEKLKAIEPNDYTGKVSEEIEDIIKKGETQTL | not failed |
| MKKAMLLIKNGKILTMTGVNYDSGSVLIDNGKIIKVGENIDVDESCEIIDADGFWVMPGIIEAHCHVGIQEEKRGFEGNDCNEMTNPVTPYLRALDGINPMDSAFYTALTAGITGIMVGPGSANVVGGQWMFLKTYGRAIDKMVVLQPSAMKIAFGENPKANYDKKNMMPSTRIAIAAMLREELFEAQQYYEKRKNAEKSGDSFNKEFRKECWVPVFDKKIPLKAHVHRADDILTAIRIAKEFNLNLTLDHCTEGHLVAKEIKESGFPAIVGPTLTSRNKIETQYADFKTAGILHNEGVKVAITTDHPVTRIQDLLICAGLAAKEGLGIEEGLKAITINPAEICNVANRVGSIEVNKDADIAIFDGNPMETFTKTMYTIINGEIVYSLKDKNY | failed |
| MTQSLFDFSAYFKFFIGLFALVNPVGIIPVFISMTSYQPAAVRNKTNLTANLSVAIILLTSLFLGDGILQIFGISIDSFRIAGGILVVTIAMSMISGKLGEDKQNKQEKSETAVRESIGVVPLALPLMAGPGAISSTIVWGTRYHSWVHLVGFSLAIAVFALCCWGIFRMAPWLVRLLGQTGINVITRIMGLLLMALGIEFIVTGIKALFPGLLS | failed |
| MEKSLETVPGLDLSGEDIEMYYQYVRFVDRFLRFNRNYQIEYFKLSYPGDGSSEREVDLLKRWIDTVIQLKVKDLDFFDYSWEWGFDNFQLPSTIYICESLVSLKLSTVTLPSVKSVSLPFLRVLKLGAVKFADHLDLETLISGCTALETLAIRFFDRVQVLQVSSQSLLSFTHVAPKLVFTHAVRKPLAEKDLSIVIDAPRLEYLKLSDHQTSSFIIKNPGSLVAVDIDINLSSGFDSRNMIRDFLVGISSVKNMTISSIILKFYDYRFKMLPTFLEICPNLKSLILKSTEELGIKESSMFSGPQDFLPSLEYVEMKMPLKKGLLLEIRMLVGYFLEKATILKKLTLCLDDYRKRKESLIPRILAIPRISTSCEVVVL | failed |
| MFADNTLTPKEAVRLCALGTIASQPMRYSELAGSVRHFTSRIMGPSLELMGISIELLRYEGLVEAVDDGQGMEDDAMLAISAAGRRELHSLLTARLRPGSDLSKLVVALKMRFLGLMEAEERAHQIDLLIEGVDSELARLADLRGSDGEGGSALAAWLDHDMALLESRLAWLEDFRARL | not failed |
| MLILVILLVLVALAFDFINGFHDAANSIATVVSTRVLSPLVAVGWAAFFNFISAMPVLWGAELKVAATMGKGIVHFEQLKAGGISLVLMVVFAALMGAIVWNLLTWWWGLPSSSSHALAGGMIGASLPPLGFAGLIPSGILKIAAFIVLSPLIGMVLGSAMMVATAWVVRKNTPARVDRWFRRLQLVSAAIFSYSHGTNDAQKVMGIISVILYGTIWADRAAMTPGHFPVPFWVVLSCHAAIGLGTMFGGWRIVRTMGHNLTKLQPIGGFCAETGGGVTILALAHFGIPVSTTHTITGAIVGVGSTKGTRAVRWGVAGRIIWAWIFTIPAAAIVAGVIFLVTRAIVSVIGVG | failed |
| LEEVQLVVEPEGGAVAPGGTVTLTCEVPAQPSPQIHWMKDGVPLPLPPSPVLILPEIGPQDQGTYSCVATHSSHGPQESRAVSISIIEPGEEGPTAGSVGGSGLGTLALALGILGGLGTAALLIGVILWQRRQRRGEERKAPENQEEEEERAELNQSEEPEAGESSTGGP | not failed |
| MKKVLILFAHPRMEKSRANTTLLKHIPSAENITFHDLYELYPDFNIDVEAEKQLLLLHDIIIWQHPFYWYSCPPLMKQWIDMVLEFGWAYGPGGTALKDKIIFNAITTGGANATYNAGGHNRFTMQEYLRPFEQTAHLCKMIYFPPFLVQGSHRLTDEELQRFSQQYVILLTKMSQGNFEEAHMKDITFLNEICVKPR | failed |
| MFAEYLDGRMLMQINAGAFLIALLCLRGDRQRTLDRWLFGAAAGVLLLVYYVWRFTDTLPEWRMDFPSLWAHAFFGFESLTIAYTLISIGIMTRTSDHSAEADAGETALRRGREAPPVDIFIATYNEGLDVLEKTIVAALDIDYPNFRVWVLDDTRRDWLREFCDQVGARYVTRPDNAHAKAGNLNNGLRHSAELDGGAPFIMVLDADFAPNRNILLRIVGLFDDPQVGVVQTPQFYYNADPIQYNLRSTECWVDEQRAFFDVMQPSKDAWGTAFCIGTSFVVRREALDRIGGFPIGTVTEDIHLTYKLMPHGYITRWLNERLSVGLSAEGLPEYISQRSRWGLGTIQVALTADGPLRGPGYTLRERLHYVHGLLHWLSRPFTLMLLAGPLLYWYFNVPTLYGEPLQFLAFGVPALLLYWAYSIWITGARAMPIFTEVTQIVAAMAVSATLVSAIFKPFGRPFKVTNKGLDRSKLVVHGKFAAFYGALFVLAAMGLGRAVAADGTASGVVFNIGWTVISMVLYLASLLVCFELPRPRKEERFPHRERARLCIYGSDGLPREFDGVTQDMSCNGIGLISDAAGRVEAGATGAVWLSELGWVTCRVARTQGHLLGIELFPDMAGRHRLIRMLFGEPAHNIAHRGRPRVAIVQLLRRAFTG | failed |
| MKLSSNNAETMESLRSERNQYRILVDITNSVLAHLDMDGLISEVSKEIHRFFGLNHISLMLCRTSSQNSHEGILYSSRYQTGKSVIRQQRKFSSANNKAEEIIHQNKPVLIDINKEDQDDVLIKRLVKQNMQTALLLPLAFNRKPLGLLILAHEISSVFTEETCQLLQQIAARIGIAIENAAAYEEITHLKDS | failed |
| MIRKLNKKDQEILKTLGSIWLNSNIATHNFINEEYWVNNYDNVIESFKTAEIIVYEKNTEIIGFCGLIDNYIAGMFIKKSSRNQ | failed |
| MQIRLAFPNEIDQIMLLIEEARAEIAKTGSDQWQKEDGYPNRNDIIDDILNGYAWVGIEDGMLATYAAVIDGHEEVYDAIYEGKWLHDNHRYLTFHRIAISNQFRGRGLAQTFLQGLIEGHKGPDFRCDTHEKNVTMQHILNKLGYQYCGKVPLDGVRLAYQKIKEKGETSIYREIDERNPM | not failed |
| MNMDPLIYVAALLFTGLLAGLATGLLGVGGGFIIAPVLFFLMEAGGTPPDIAIRTAFGTSLAIILPTALSGAHSHYRRKCVDSRIGITMGVLGACGSVAGVFTASASPAYVLRAFFGVLLILVSAQLLLSSRISPSGFGRNAAFPLGFLAGFLSGLLGIGGGVVLVPLLVMVAGFDVLEAVGTSSLVIAFTAASGTISYIFTGPGGPFTVGYVNLLQFLLVIVMSVPSSRLGALIAHRVDVRYIRYIFIILLLFTGLKMLL | failed |
| MFRTSGTKTIVFHCHPRYTMIVCVMEEFCRKKVDGNENNSYLTVCNRKLDQERKEIVMNEKQRLEQTGQIQTASHPADRKSDLERLKAKTTKDYEKYFTSVFLPPNLKEAKKRGKEEVQYVKDFTIPDEFRGMGRGRKFYIRTYGCQMNEHDTEVMAGIFMALGYEPTDRPEDANVILLNTCAIRENAENKVFGELGYLKPLKTTNPDLLLGVCGCMSQEEAVVNKILKQYQYVDLIFGTHNIHRLPYILHEAYMSKEMVVEVWSKEGDVVENLPKVRKGNIKAWVNIMYGCDKFCTYCIVPYTRGKERSRRPEDIIQEVRQLAAQGYKEITLLGQNVNAYGKDFNDIQYGLGDLMDELRKIDIARIRFTTSHPRDFDDRLIEVLAKRGNLVEHIHLPVQSGSTEILKMMGRKYTREEYLELVRKIKAAIPDVALTTDIIVGFPNETDEQFEETLSLYREVEFDSAYTFIYSPREGTPAAKMNDNVPMEVKKERLQRLNALVQEIAAKKMKQYEGQVVEVLVEGESKTNPDVLAGYTRKNKLVHFVGPKSLIGQLVNVRITQAKTWTLTGELANEAIEVN | failed |
| MAEIQFSKGVAETVVPEVRLSKSKNGQSGMAKFYFLEPTILAKESTDDITGMYLIDDEGEIITREVKGKFINGRPTAIEATVILNSQPEWDRFMRFMERYGAENGLGFSKSELEHHHHHH | not failed |
| MPRYPVRPADHAQSAEGGVTAVDRALTLLTAFRVTDQTLSLSELSERASLVPSTVLRLLASLMHFGFVLRRPDGRYALGPAAARLNRVYAASFNLQDVVLPALQELVGQTRESASFHVRQGAHRLVLYRVSSPQPLSDQSHTGDLLPLDRGTGGHVLMAFSDTPGEFYEALRLRGYMASPVSDRSPELAGISAPVFDAQGMLAGALTLTMPVHRYKDAHIPVLREAAARLSAALGA | failed |
| MDIEDLQTFVAVADAGGVSAAARRLGISKSIVSRRLLRVEAELGVQLLARTTRGAALTEAGITFRDHAARASAEIDTAKETILPTGELRGRLRVAMPLTFGPTHFAPVLADMARQHPQLHIHTSYSDRFVDLIAEGFDCAIRGAYLQDSNLIAKRVGPIHGKLVASPDYIKAHGSPGTLDELVTHQALMQGTEAWQFMDGDKIVTVQPQGRFKADSATALAAAAAAGLGIAWLPDCITYGYVASGALVPIMTRYPVPPGAAYVVRPPGQHPTRKVRALTEMLTEYFKRNPDVWGLDR | failed |
| MIEKVYEFKRDAKTKVVEKLVNTEHVQINHIVLPRGEQMPKHYSNSYVHLIIIKGEMTLTLEDQEPHNYKEGNIVYVPFNVKMLIQNINSDILEFFVVKAPHPKKLNAPEDPIKCE | not failed |
| NSDVPENTHLVSKEVQAAFNAKYPQAKDVEWELKGDYAVADFYWDGGEHSAWFNPLSAAWYMTETDVRYENLPEPVLAAHKAGKYADWRVDDVDKLTREGMETLYVIEVEKGESELDLFYSSTGILVKTVVDTGHEEDYDDYLPQPDANGIIAIVKQKYPNATIVEIEREKGLQEVTILDENKEKEVYFNERNEWMGTSWDVQVANLPEAVKKSVMEKYSDYVIDDADYVVTPDNEWYILDLENKQIDKELKVKVDKDGVWL | not failed |
| MKKDLISVVMSAYNSEKFISDSISSILDQTYENWELIIINDASSDNTLKIVNQFSEKDPRIKVIDNENNLGLTISLNIGINNSKGEFIARLDSDDFAEPSRLEKELDHLHAYPEAGLVGSGAHLINSSGNKIGSMNVMSQPYFVNRFLINLNPFIHSSIMVRKKALDNVGSYREKFRYSQDYDLILRLSDKYKLSNIALPLIRWRVSDSSVTMQHHTLQRIYADIAREFAIERRNSGHDSYESTEFDTLIHEMRIRNQGRYLCDHGVYDLLFNKKYKEGCSELIKGISKGGFPYNSFYRGITQVISKVNIQLEHHHHHH | failed |
